Results reported in patent US20180305702A1.

Columns and labels:
[1] = target: H-2K^b on DC2.4 cells not presenting SIINFEKL (cells infected with a non-SIINFEKL-expressing Lm strain; K^b-SIINFEKL negative populations) (murine); assay: flow cytometry, DC2.4 cells infected with a non-SIINFEKL-expressing Lm strain at MOI 20
[2] = target: H-2K^b on DC2.4 cells not presenting SIINFEKL (cells infected with a non-SIINFEKL-expressing Lm strain; K^b-SIINFEKL negative populations) (murine); assay: flow cytometry, K^b-SIINFEKL negative populations of infected DC2.4 cells
[3] = target: cell surface MHC class I K^b molecules presenting the OVA257-264 SIINFEKL peptide (murine); assay: flow cytometry, DC2.4 cells infected with ADXS31-2142 at MOI 20, stained five hours post-infection
[4] = target: cell surface MHC class I K^b molecules presenting the OVA257-264 SIINFEKL peptide (murine); assay: flow cytometry, K^b-SIINFEKL positive population of DC2.4 cells infected with the SIINFEKL minigene Lm (positive control)
[5] = target: cell surface MHC class I K^b molecules presenting the OVA257-264 SIINFEKL peptide (murine); assay: flow cytometry, K^b-SIINFEKL positive population of DC2.4 cells infected with Lm expressing PSA-Survivin-SIINFEKL
[6] = target: cell surface MHC class I K^b molecules presenting the OVA257-264 SIINFEKL peptide (murine); assay: flow cytometry, K^b-SIINFEKL positive population of DC2.4 cells infected with Lm expressing PSA-PSMA-SIINFEKL

percentage of Alexa647+ DC2.4 cells [1]: 0.37%
Mean fluorescence intensity (MFI) [2]: 300 MFI
percentage of Alexa647+ DC2.4 cells [3]: 14.6%
Mean fluorescence intensity (MFI) [4]: 14900 MFI
Mean fluorescence intensity (MFI) [6]: 2040 MFI
Substance: Alexa Fluor 647 conjugated 25D-1.16 antibody
Mean fluorescence intensity (MFI) [5]: 4780 MFI
